# The supplement of paper PMC9170038
# System: MS2 coat protein
# Assay: apparent KD of MS2 coat protein; designed switch direction (-1 OFF switch, 1 ON switch): 1; higher = weaker reporter binding
# In short: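 An oligonucleotide input, 200 uM small-molecule ligand, or no input was present during titration of SNAP-549-labelled MS2 coat protein, which was doubled from 0.7 or 1.5 nM to 3 µM. Designed RNA switches had been transcribed on Illumina chips by stalled E. coli RNA polymerase. Apparent KD per design is the median over clusters of curves fitted to normalised cluster fluorescence.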
# [1] = input ligand: microRNA oligo, concentration not stated
Sequence,apparent KD of MS2 coat protein (input ligand: FMN 200 uM) [nM],apparent KD of MS2 coat protein [1] [nM],apparent KD of MS2 coat protein (input ligand: none) [nM]
"GCGAGCGUACUUGCAACAUGAGGAUCACCCAUGUUAACUGGACAGGAUAUGGUACCGUUUCGGUACCAGAAGGGUUCCUCAUUG [JL SSNG3 3.63] (Eterna round: R96, puzzle: Same State NG 3)",319,34.7,437
"GCGAGCGUACUUGCAGACAUGAGGAUCACCCAUGUAACUGGACAGGAUAUGGUACCGUUUCGGUACCAGAAGGGUCCAUAUGUC [JL SSNG3 3.54] (Eterna round: R96, puzzle: Same State NG 3)",64.4,115,130
"GCGAGCGUACUUGCAGACAUGAGGAUCACCCAUGUAACUGGGUAGGAUAUGGUACCGUUUCGGUACCAGAAGGACUUAUGAAAG [JL SSNG3 1.50] (Eterna round: R96, puzzle: Same State NG 3)",67,35,54.4
"GCGGAGAGGUAAGGAUAUCCAUGGAAGAAACAUGAGGAUCACCCAUGUAGGAAGAAGACUAGGAGGGAGAAGGUACCGGGACGC [AK SSNG2-V2-20.1] (Eterna round: R96, puzzle: Same State NG 2)",29.2,26.2,40.5
"GCGGAGAGGUAAGGAUAUCCAUGGCAUAGACAUGAGGAUCACCCAUGUAGGAGACGAAUUAGAAGGGAGAAGGUACCGGGACGC [AK SSNG2-V2-19] (Eterna round: R96, puzzle: Same State NG 2)",175,111,168
"GCGGAGAGGUCAGGAUAUCCAUGGAAGACACAUGAGGAUCACCCAUGUGGGAGGGAAACCAGGAGGGAGAAGGGACCGGGACGC [ssng2 v2 c] (Eterna round: R96, puzzle: Same State NG 2)",11.4,10.3,13.3
"GCUACAUGAGGAUCACCCAUGUGUGCGUGGGAGUGAGUGGCUUAGGAUAUCUAUGACUUUAGUUGAGAGAAGGAGGAUUGCUGU [SS-NG3-LRO11] (Eterna round: R96, puzzle: Same State NG 3)",190,105,173
"GCUAGAAAUAAUGCCAACAUGAGGAUCACCCAUGUAUGUUGGCAGGAUAUCGUAUGCAAAGCAUACGAGAAGGGCUAAACUAGC [Mat - Same State NG 3 - JL Mod - D9] (Eterna round: R96, puzzle: Same State NG 3)",217,190,231
"GCUAGAAUAAACGCCUACAUGAGGAUCACCCAUGUAUGUAGGCAGGAUAUCGUUUGCAAAGCAAACGAGAAGGGCCUUACUAGC [Mat - Same State NG 3 - JL Mod - D32] (Eterna round: R96, puzzle: Same State NG 3)",20.2,22.2,37.1
"GCUAGAAUUAAAGCCAACAUGAGGAUCACCCAUGUAUGUUGGUAGGAUAUCGUUUGCAAAGCAAACGAGAAGGGCCAAACUAGC [Mat - Same State NG 3 - JL Mod - D19] (Eterna round: R96, puzzle: Same State NG 3)",86.6,104,99.7
"GCUAGAAUUAAUGCUAACAUGAGGAUCACCCAUGUAUGUUGGCAGGAUAUCGUUUGCUUUGCAAACGAGAAGGGCCAUACUAGC [JL SSNG3 1.09] (Eterna round: R96, puzzle: Same State NG 3)",20,14,26.3
"GCUCGAAUCAGAACCAACAUGAGGAUCACCCAUGUGUGUUGGUAGGAUAUCGUUUCUAAGAGAAACGAGAAGGGCCGAACGAGC [SameState NG3 #6] (Eterna round: R96, puzzle: Same State NG 3)",41,52.3,75.7
"GCUCGACGUAUUGUUUACAUGAGGAUCACCCAUGUAGGUGCGAAGGAUAUCUACGUGUUUCAUGUAGAGAAGGUCGUGUCGAGC [SameState NG3 #92] (Eterna round: R96, puzzle: Same State NG 3)",19.3,42.5,54.1
"GCUCGACUGAUGGCCUACAUGAGGAUCACCCAUGUGAUUGGGCAGGAUAUCUAGAUGCAGGAUGUAGAGAAGGGCCGGUCGAGC [SameState NG3 #46] (Eterna round: R96, puzzle: Same State NG 3)",472,501,475
"GCUCGAUGUGCUGUUUACAUGAGGAUCACCCAUGUAGAUGCGGAGGAUAUCUACGUGCUUUAUGUAGAGAAGGUCGUAUCGAGC [SameState NG3 #83] (Eterna round: R96, puzzle: Same State NG 3)",33.4,41.2,60.8
"GCUCGCACGAUGACCCACAUGAGGAUCACCCAUGUGCAUGGGCAGGAUAUCUAGAUUAAGGAUGUAGAGAAGGGUUGAGCGAGC [SameState NG3 #26] (Eterna round: R96, puzzle: Same State NG 3)",1580,192,533
"GCUCGCACGAUGACCGACAUGAGGAUCACCCAUGUGUGUCGGUAGGAUAUCUAUAUUAAGGAUUUAGAGAAGGGCCGAGCGAGC [SameState NG3 #21] (Eterna round: R96, puzzle: Same State NG 3)",57.1,104,117
"GCUCGUACGAUGACCGACAUGAGGAUCACCCAUGUGUGUCGGUAGGAUAUCUAUAUUAAGGAUUUAGAGAAGGGCCCAACGAGC [SameState NG3 #19] (Eterna round: R96, puzzle: Same State NG 3)",63.3,66.5,82
"GCUGCAAGGGCAGGAUAUGGGUUCAGAGCAGAAGUGCGCUUUGAUACAUGAGGAUCACCCAUGUCCCAGAAGGGCCCAAGCGGC [Veribe] (Eterna round: R96, puzzle: Same State NG 2)",17.7,98.3,159
